This passage reports percent decrease of binding in the presence of heparin and percent decrease of binding in the presence of dextran sulfate results from US20240239901A1.

The target in assay [1] is human purified airway mucins (purified from induced sputum of five asthmatic donors, pooled). The assay is described as follows: plate binding assay: purified mucins coated, FLAG-ITLN-1 with heparin (150 pg/mL as printed) in the binding buffer.
Assay [2] shares this target. In words: plate binding assay: purified mucins coated, FLAG-ITLN-1 with dextran sulfate (150 pg/mL as printed) in the binding buffer.

For “FLAG-tagged recombinant ITLN-1 (Sigma, SRP8047) (from UniProt Q8WWA0 19-298) (ligand)”, the percent decrease of binding in the presence of heparin in assay [1] amounted to 51.9%. In addition, in assay [2], the percent decrease of binding in the presence of dextran sulfate was found to be 74%.
